Data reported in article PMC4672631.
Like-named read-outs stand apart in the source and are kept apart here.

Tests used:
[1] = target: cytochrome f (PetA) with a C-terminal six-histidine tag, F. diplosiphon SF33 (Fremyella diplosiphon SF33); experiment: co-purification
[2] = target: cytochrome f (PetA) with a C-terminal six-histidine tag, F. diplosiphon SF33 (Fremyella diplosiphon SF33); experiment: co-purification; remark: listed apart in the source
[3] = target: cytochrome b6f complex of spinach (monomeric unit) (spinach) (UniProt P16013); experiment: native gel or EMSA

Substance | stoichiometry N (relative to cyt f) [1] | stoichiometry N (relative to cyt f) [2] | stoichiometry N [3]
cytochrome b6 (PetB), F. diplosiphon SF33 (natural protein) | 1.09 | 0.69 | –
cytochrome b6f complex of spinach (monomeric unit) (from UniProt P16013 36-320; P00165 1-215; P08980 52-230; P00166 1-160) | – | – | 2
iron-sulfur protein (ISP), full length, F. diplosiphon SF33 (natural protein) | 0.17 | 0.21 | –
subunit IV (PetD), F. diplosiphon SF33 (natural protein) | 0.45 | 0.29 | –
